This note sets out measurements from PMC3912200, “Structural and Functional Characterization of Cargo-Binding Sites on the μ4-Subunit of Adaptor Protein Complex 4” (PLoS ONE, 2014).

Residue numbers refer to the chain shown, from its start. Numbers in names are those of the source.

In one test the test system is cytosolic tail of APP. Description: Yeast two-hybrid (Y2H) analysis of μ4 with the APP tail. The test is classed as binding. As to conditions: growth on -His plates, 30°C; for effect of mutation on binding to the APP YKFFE signal (Y2H): mutations at μ4-binding site; for effect of mutation on interaction of the APP tail with μ4 (Y2H): mutations at μ2-binding site. The source says:
The cloning of the tail of APP (residues 649–695), full-length human μ4, and all the other yeast two-hybrid (Y2H) constructs, and the cloning of the C-terminal domain of μ4 for expression in E. coli was described previously. To generate a construct for mammalian expression, full-length human μ4 was obtained by PCR amplification and cloned into the EcoRI and SalI sites of pEGFP-N1 (BD BiosciencesClontech, Mountain View, CA) including a stop-codon before the GFP coding sequence. The cloning of APP-GFP carrying the double mutation F615P/D664A was described previously. Single amino acid substitutions were introduced using the QuikChange mutagenesis kit (Stratagene, La Jolla, CA). Y2H assays were performed as previously described. A set of pCI-neo (Promega) constructs encoding hemagglutinin (HA)-epitope tagged wild-type or mutants of human μ4 was a generous gift of J. Bonifacino and R. Mattera (Cell Biology and Metabolism Program, NICHD, NIH). The nucleotide sequences of all recombinant constructs were confirmed by dideoxy sequencing.
Figure 1 Yeast two-hybrid analysis of the interaction of μ4 with the cytosolic tail of APP. (A) Superposition of the surface and ribbon representations of human wild-type μ4 C-terminal domain (pdb entry 3L81). The insets show an enlargement of the μ4-binding site and the putative μ2-binding site with residues chosen for the yeast two-hybrid (Y2H) analysis. The APP peptide (TYKFFEQ; stick model) bound to the μ4-binding site is in yellow, and the EGFR peptide (FYRALM; stick model; pdb entry 1BW8) superposed to the putative μ2-binding site is in magenta. (B) Sequence alignment of the C-terminal domain of the μ subunits of known crystal structure depicting critical residues at the corresponding μ2- and μ4-binding sites. Disordered loops are in yellow letters, and arrows and cylinders represent β-strands and α-helices, respectively. M.m., Mus musculus; R.n., Rattus norvegicus; H.s., Homo sapiens. (C) and (D) Yeast were co-transformed with plasmids encoding Gal4bd fused to the cytosolic tail of the amyloid precursor protein (APP) indicated on the left, and Gal4ad fused to wild-type or mutant μ4 constructs indicated on top of each panel. (C) Y2H analysis of μ4 with mutations on the YKFFE binding site (μ4-binding site). (D) Y2H analysis of μ4 with mutations on a putative YXXØ binding site (μ2-binding site). Mouse p53 fused to Gal4bd and SV40 large T antigen (T Ag) fused to Gal4ad were used as controls. Co-transformed cells were spotted onto His-deficient (-His) or His-containing (+His) plates and incubated at 30°C. Growth is indicative of interactions. Some mutations on either of the two sites affect the interaction of μ4 with the cytosolic tail of APP.

A further test concerns APP-GFP. In words: Distribution of APP-GFP in MDA-MB-231 cells. In kind it is cell-based, human. The following applies: HA-epitope-tagged constructs, 24 h after transfection; EEA1/TGN46 immunofluorescence. The method, then:
H4 human neuroglioma or MDA-MB-231 human mammary gland epithelial cells obtained from the American Type Culture Collection (Manassas, VA) were maintained in DMEM (H4) or DMEM/F12 (MDA-MB-231) supplemented with 10% (v/v) fetal bovine serum (FBS), 100 U/ml penicillin and 100 µg/ml streptomycin (Life Technologies). Transfections were carried out using Lipofectamine 2000 (Life Technologies) for 1 h at 37°C in the absence of FBS, and cells were analyzed 16, 24 or up to 36-h after transfection, for which we observed no notorious signs of loss in cell viability. SDS-PAGE, immunoblotting, and immunoprecipitation were performed as described. H4 cells after 16 h of transfection were washed twice with cold phosphate buffered saline supplemented with 0.1 mM CaCl2 and 1 mM MgCl2 (PBS-Ca/Mg), and incubated at 4°C for 1 h in lysis buffer (50 mM Tris-HCl pH 7.4, 150 mM NaCl, 1 mM EDTA, 1% (v/v) Triton X-100, and a cocktail of protease inhibitors). Soluble extracts were subjected to overnight immunoprecipitation at 4°C either with rabbit anti-HA-epitope antibody (kindly provided by R. Hegde, MRC Laboratory of Molecular Biology, Cambridge, UK) or with mouse antibody to the ε subunit of AP-4 (BD Biosciences) immobilized onto protein A- or a 1∶1 mix of protein A- and protein-G Sepharose beads (GE Healthcare), respectively. Soluble extracts and immunoprecipitates were processed by SDS-PAGE and blotted with horseradish peroxidase-conjugated mouse anti-HA antibody (Macs Miltenyi Biotec) or with mouse antibody to the ε subunit of AP-4.
Indirect immunofluorescence staining of fixed, permeabilized cells was performed as previously described, using sheep polyclonal antibody anti-TGN46 (Serotec), and mouse monoclonal antibody anti-EEA1 (BD Biosciences) or rabbit polyclonal antibody anti-EEA1 (Santa Cruz Biotechnology), followed by the secondary antibodies Alexa-647–conjugated donkey anti-mouse IgG, Alexa-594–conjugated donkey anti-rabbit IgG, or Alexa-594– or -647–conjugated donkey anti-sheep IgG (Life Technologies). Images were acquired either with an Olympus FluoView FV1000 scanning unit fitted on an inverted Olympus IX81 microscope and equipped with a PlanApo 60x oil immersion objective (NA 1.40; Olympus, Melville, NY), using similar settings as described previously, or with an AxioObserver.D1 microscope equipped with a PlanApo 63x oil immersion objective (NA 1.4), and an AxioCam MRm digital camera (Carl Zeiss). Quantitative analysis of colocalization was performed as we previously described, with minor modifications. Briefly, 12-bit images were acquired under identical settings avoiding signal saturation, and corrected for noise, cross-talk, and background signals on each set of images. The signals of TGN46 or EEA1 in each set of images were used in Image J (version 1.44o; Wayne Rasband, NIH, http://imagej.nih.gov) to define masks regarded as Golgi/TGN or early endosomes localization, respectively. The percentage of localization in each compartment was calculated for each cell (n = 10–15) subtracting either the Golgi/TGN or the early endosomes mask from the total integrated pixel intensity of APP-GFP, and the remainder of the signal was considered as in the ‘rest of the cell’.
We next examined the functional role of both the μ2- and the μ4-binding site of μ4 on the intracellular trafficking of APP. We have shown that the YKFFE-μ4 interaction is functional in vivo because its disruption by depletion of μ4 by RNAi produces a shift in the distribution of APP from endosomes to the TGN [18]. To evaluate now the function of each binding site for tyrosine-based signals, we tested a dominant-negative effect by overexpressing untagged or HA-epitope-tagged full-length wild-type μ4 or the variants untagged or HA-epitope-tagged μ4-D190A, μ4-D190S, μ4-F255A or μ4-R283D in H4 neuroglioma cells, as well as in MDA-MB-231 mammary gland epithelial cells, and examined by immunofluorescence the distribution of APP-GFP. […]

B1: S254K: μ4 mutant, μ4-binding site, Y2H construct (protein)
chain: MISQFFILSSKGDPLIYKDFRGDSGGRDVAELFYRKLTGLPGDESPVVMHHHGRHFIHIRHSGLYLVVTTSENVSPFSLLELLSRLATLLGDYCGSLGEGTISRNVALVYELLDEVLDYGYVQTTSTEMLRNFIQTEAVVSKPFSLFDLSSVGLFGAETQQSKVAPSSAASRPVLSSRSDQSQKNEVFLDVVERLSVLIASNGSLLKVDVQGEIRLKSFLPSGSEMRIGLTEEFCVGKSELRGYGPGIRVDEVKFHSSVNLDEFESHRILRLQPPQGELTVMRYQLSDDLPSPLPFRLFPSVQWDRGSGRLQVYLKLRCDLLSKSQALNVRLHLPLPRGVVSLSQELSSPEQKAELAEGALRWDLPRVQGGSQLSGLFQMDVPGPPGPPSHGLSTSASPLGLGPASLSFELPRHTCSGLQVRFLRLAFRPCGNANPHKWVRHLSHSDAYVIRI
modifications: left off: Gal4 activation domain, end not stated, kept
For the molecule B1, the “effect of mutation on binding to the APP YKFFE signal (Y2H)” value (shortened to “effect of mutation on binding”) in the test with cytosolic tail of APP is recorded as “little or no effects”.

B2: R441A: μ4 mutant, μ2-binding site, Y2H construct (protein)
chain: B1 chain with K254S, R441A
modifications: left off: Gal4 activation domain, end not stated, kept
As for B2, the “effect of mutation on interaction of the APP tail with μ4 (Y2H)” value (shortened to “effect of mutation on interaction … (Y2H)”) in the test on cytosolic tail of APP is recorded as “little or no effect”.

B3: S257Q: μ4 mutant, μ4-binding site, Y2H construct (protein)
chain: B1 chain with K254S, S257Q
modifications: left off: Gal4 activation domain, end not stated, kept
On to B3, for which, in the test with cytosolic tail of APP, the “effect of mutation on binding” value is “little or no effects”.

B4: W439S: μ4 mutant, μ2-binding site, Y2H construct (protein)
chain: B1 chain with K254S, W439S
modifications: left off: Gal4 activation domain, end not stated, kept
For B4, the “effect of mutation on interaction … (Y2H)” value with cytosolic tail of APP is listed as “little or no effect”.

B5: F264A: μ4 mutant, μ4-binding site, Y2H construct (protein)
chain: B1 chain with K254S, F264A
modifications: left off: Gal4 activation domain, end not stated, kept
In the case of B5, the “effect of mutation on binding” value in the test with cytosolic tail of APP is recorded as “drastically reduced”.

B6: E265R: μ4 mutant, μ4-binding site, Y2H construct (protein)
chain: B1 chain with K254S, E265R
modifications: left off: Gal4 activation domain, end not stated, kept
Take B6: the “effect of mutation on binding” value in the test with cytosolic tail of APP was “completely abolished”.

B7: L261K: μ4 mutant, μ4-binding site, Y2H construct (protein)
chain: B1 chain with K254S, L261K
modifications: left off: Gal4 activation domain, end not stated, kept
As to B7, the “effect of mutation on binding” value in the test on cytosolic tail of APP is “completely abolished”.

B8: µ4-HA: HA-epitope-tagged full-length wild-type μ4, overexpressed (protein)
chain: B1 chain with K254S
modifications: left off: HA, end not stated, kept
As for B8, the “change in distribution of APP” value in the test on APP-GFP is on record as “no apparent change in the distribution of APP”.

B9: K217A: μ4 mutant, μ2-binding site, Y2H construct (protein)
chain: B1 chain with K217A, K254S
modifications: left off: Gal4 activation domain, end not stated, kept
As for B9, the “effect of mutation on interaction … (Y2H)” value in the test with cytosolic tail of APP was “little or no effect”.

B10: T280R: μ4 mutant, μ4-binding site, Y2H construct (protein)
chain: B1 chain with K254S, T280R
modifications: left off: Gal4 activation domain, end not stated, kept
For the molecule B10, the “effect of mutation on binding” value in the test with cytosolic tail of APP is recorded as “little or no effects”.

B11: T280A: μ4 mutant, μ4-binding site, Y2H construct (protein)
chain: B1 chain with K254S, T280A
modifications: left off: Gal4 activation domain, end not stated, kept
For the molecule B11, the “effect of mutation on binding” value in the test on cytosolic tail of APP is on record as “little or no effects”.

B12: D190S: μ4 mutant, μ2-binding site, Y2H construct (protein)
chain: B1 chain with D190S, K254S
modifications: left off: Gal4 activation domain, end not stated, kept
Consider B12, for which the “effect of mutation on interaction … (Y2H)” value in the test with cytosolic tail of APP was “little or no effect”.

B13: F188A: μ4 mutant, μ2-binding site, Y2H construct (protein)
chain: B1 chain with F188A, K254S
modifications: left off: Gal4 activation domain, end not stated, kept
For B13, the “effect of mutation on interaction … (Y2H)” value with cytosolic tail of APP was “little or no effect”.
